Experiment: yeast display, Sf9 membrane polyspecificity reagent, FACS + sequencing; frameworks hold sequencing errors
How it was run: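 Sorting gates, low and high (top ~1%), were placed on anti-HA fluorescence to track expression and on streptavidin fluorescence to track reagent binding. A clone's polyreactivity label is taken from the gate it came out of. The reagent was 10% biotinylated, detergent-solubilized Sf9 membrane, applied for 1 hour at 4 °C to galactose-induced yeast display cells.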

| Sequence | polyreactivity (PSR sort gate) |
| --- | --- |
| QVQLVESGGGLVQAGGSLRLSCAASGSILRRYAMGWYRQAPWKERELVAAITSSGGGTYYADSVKGRFTISRDNAKNTVYLQMKSLKPEVTAVYYCAAEYGWLYEYDYWGQGTQVTVSS | high polyreactivity |
| QVQLVESGGGLVQAGGSLRLSCAASGSILRSNAMGWYRQAPGKERELVAAITFNGGSTYADSVKGRFTISRDNAKNTVYLQMNSLIPEDTAVYYCATGDGPSLFDYWGQGTQVTVSS | low polyreactivity |
| QVQLVESGGGLVQAGGSLRLSCAASGSILRSYAMGWYRQAPGKERELVAAISSSGGSTYYADSVKGRFTISRDNAKNTVYLQMNSLKPEDTAVYYCAAATSRRFDYWGQGTQVTVSS | high polyreactivity |
| QVQLVESGGGLVQAGGSLRLSCAASGSILRTYTMGWYRQATGKERELVAAISSSGGRTYYADSVKGRFTISRDNAKNTVYLQMNSLKPEDTAVYYCNAGGYRYRSYDYWGQGTQVTVSS | high polyreactivity |
| QVQLVESGGGLVQAGGSLRLSCAASGSILRYTMGWYRQAPGKEREWVAAITRSGTSTYYADSVKGRFTISRDNAKNTVYLQMNSLKPEDTAVYYCAASAGPRASYYYWGQGTQVTVSS | high polyreactivity |
| QVQLVESGGGLVQAGGSLRLSCAASGSILRYYAMGWYRQAPGKERELVAAITGRGGRTYYADSVKGRFTISRDNAKYTVYLQMNSLKPEDTAVYYCAADGDNPYLHEEDYWGQGTQVTVSS | high polyreactivity |
| QVQLVESGGGLVQAGGSLRLSCAASGSILSFNAMGWYRQAPGKERELVAAISRGGSTNYADSVKGRFTISRDNAKNTVYLQMNSLKPEDTAVYYCAAVQYRYSTRWARRAYDYWGQGTQVTVSS | high polyreactivity |
| QVQLVESGGGLVQAGGSLRLSCAASGSILSINGMGWYRQAPGKERELVATIDGSDGSTFYADSVKGRFTISRDNAKNTVYLQMNSLKPEDTAVYYCAAENFWQTKEYDYWGQGTQVTVSS | low polyreactivity |
| QVQLVESGGGLVQAGGSLRLSCAASGSILSLYTMGWYRQAPGKERELVARISRSGGSTYYADSVKGRFTISRDNAKNTVYLQMNSLKTEDTAVYYCAARPYVVIYYGKSRGYYWGQGTQVTVSS | high polyreactivity |
| QVQLVESGGGLVQAGGSLRLSCAASGSILSPNAMGWYRQAPGKERELVADISSVGSTYYADSVKGRFTISRDNAKNTVYLQMNSLKPEDTAVYYCAAEFRATDGIGYDYWGQGTHVTVSS | low polyreactivity |
| QVQLVESGGGLVQAGGSLRLSCAASGSILSYYAMGWYRQAPGKEREFVAAISSGGGTYYADSVKGRFTISRDNAKNTVYLQMNSLKPEDTAVYYCNAEIWTEGGYWGQGTQVTVSS | low polyreactivity |
| QVQLVESGGGLVQAGGSLRLSCAASGSILSYYTMGWYRQAPGKERELVAAISAGGGSTYYADSVKGRFTISRDNAKNTVYLQMNSLKPEDTAVYYCASGFSRRWQYNYWGQGTQVTVSS | high polyreactivity |
| QVQLVESGGGLVQAGGSLRLSCAASGSILSYYVMGWYRQAPGKERELVAAITSDGSKNYADSVKGRFTISRDNAKNTVYLQMNSLKPEDTAVYYCAAVIAWYYGVQDVYYLGLYDYWGQGTQVTVSS | low polyreactivity |
| QVQLVESGGGLVQAGGSLRLSCAASGSILTGNAMGWYRQAPGKERELVAGITVGGTSTYYADSVKGRFTISRDNAKNTVYLQMNSLKPEDTAVYYCAAGYRSYWGVYDFDYWGQGTQVTVSS | low polyreactivity |
| QVQLVESGGGLVQAGGSLRLSCAASGSILTVYAMGWYRQAPGKERELVAAITSSGGITYYADSVKGRFTISRDNAKNTVYLQMHSLKPEDTAVYYCAAYGYGSNYRYTGYYYWGQGTQVTVSS | low polyreactivity |
| QVQLVESGGGLVQAGGSLRLSCAASGSILVEYAMGWYRQAPGKERELVAGISGSTGTTYYADSVKGRFTISRDNAKNTVYLQMNSLKPEDTAVYYCAKLFPVARPQYGYWGQGTQVTVSS | low polyreactivity |
| QVQLVESGGGLVQAGGSLRLSCAASGSILVLNDMGWYRQAPGKERELVATITSGGNTYYADSVKGRFTISRDNAKNTVYLQMNSLKPEDTAVYYCNARWQRPYDYWGQGTQVTVSS | low polyreactivity |
| QVQLVESGGGLVQAGGSLRLSCAASGSILVRYAMGWYRQAPGKERELVAAITYSVGSTYYADSVKGRFTISRDNAKNTVYLQMNSLKPEDTAVYYCAASGGTEVLLMDYWGQGSQVTVSS | low polyreactivity |
| QVQLVESGGGLVQAGGSLRLSCAASGSILVYNAMGWYRQAPGKERELVDAISNTGRTYYADSVKGRFTISRDNAKNTVYLQMNSLKPEDTAVYYCADRFYRVLHRFGYWGQGTQVTVSS | high polyreactivity |
| QVQLVESGGGLVQAGGSLRLSCAASGSILVYYAMGWYRQAPGKERELVAAISSGGSTNYADSVKGRFTISRDNAKNTVYLQMNSLKPEDTAVYYCAKESGWVGAIHYDYWGQGTQVTVSS | low polyreactivity |
| QVQLVESGGGLVQAGGSLRLSCAASGSILWLNAMGWYRQAPGKERELVADITRGGSTYYADSVKGRFTISRDNAKNTVYLQMNSLTPEDTAVYYCAADAYTCQIPYYYFEHYYWGQGTQVTVSS | high polyreactivity |
| QVQLVESGGGLVQAGGSLRLSCAASGSILWYYAMGWYRQAPGKERELVATITSGGSTYYADSVKGRFTMSRDNAKNTVYLQMNILKTEDTAVYYCNADLAVDEYVYWGQGTQVTVSS | low polyreactivity |

| Sequence | polyreactivity (PSR sort gate) |
| --- | --- |
| QVQLVESGGGLVQAGGSLRLSCAASGSILYIYAMGWYRQAPGKERELVAAITSSVGRTYYADSVKGRFTISRDNAKNTVYLQMNSLKPEDTAVYYCAAEYYYSQVAYDYWGQGTQVTVSS | high polyreactivity |
| QVQLVESGGGLVQAGGSLRLSCAASGSILYPNAMGWYRQAPGKERELVAAISSSGGRTYYADSVKGRFTISRDNAKNTVYLQMNSLKPEDTAVYYCATVSIAGPRYDYWGQGTQVTVSS | high polyreactivity |
| QVQLVESGGGLVQAGGSLRLSCAASGSILYSYAMGWYRQAPGKERELVARITKRGGRTYYADSVKGRFTISRDNAKNTVYILMNSLKPEDTAVYYCAADFQYSYGEYDYWGQGTQVTVSS | high polyreactivity |
| QVQLVESGGGLVQAGGSLRLSCAASGSILYVYAMGWYRPAPGKETELVAVITSGGSTNYADSVKGRFTISRDNAKNTVYLQMNSLKPEDTAVYYCAADPYSVYGGDYWGKGTQVTVSS | low polyreactivity |
| QVQLVESGGGLVQAGGSLRLSCAASGSILYVYAMGWYRQAPGKERELVAVITSGGSTNYADSVKGRFTISRDNAKNTVYLQMNSLKPEDTAVYYCRFKYAVAHHFWVYRYDYWGQGTQVTVSS | low polyreactivity |
| QVQLVESGGGLVQAGGSLRLSCAASGSILYYALGWYRQAPGKESELVATITRGGSTYYADSVKGRFTISRDNAKNTVYLQMNSLKPEDTAVYYCAARRAVRVGYYWHDISSYDYWGQGTQVTVSS | low polyreactivity |
| QVQLVESGGGLVQAGGSLRLSCAASGSILYYNAMGWYRQAHGKEREFVASISLTGGSTTYADSVKGRFTISRDNAKNTVYLQMNSLKPEDTAVYYCNATHYPAADRSTNNYGGGFDYWGEGTQVTVSS | low polyreactivity |
| QVQLVESGGGLVQAGGSLRLSCAASGSINHYAMGWYRQAPGKERELVAAISSSGGTTYYADSVKGRFTISRDNAKNTVYLQMNSLKPEDTAVYYCAADKLSGGLDYWGQGTQVTVSS | high polyreactivity |
| QVQLVESGGGLVQAGGSLRLSCAASGSISDIYTMGWYRQAPGKERELVAAITGSAGSTYADSVKGRFTLSRDNAKNTVYLQMNSLKPEDTAVYYCNAQPGDDVKVKLDYWGQGTQVTVSS | low polyreactivity |
| QVQLVESGGGLVQAGGSLRLSCAASGSISDWNAMGWYRQAPGKERELVAAINWSGDTTYYADSVKGRFTFSRDNSKNTVYLQMNSLKPEDTAVYYCAAYLVVDYDWYDYWGQGTQVTVSS | high polyreactivity |
| QVQLVESGGGLVQAGGSLRLSCAASGSISDWNAMGWYRQAPGKERELVAAINWSGDTTYYADSVKGRFTISRDTAKNTVYLQMNSLKPEDTAVYYCAADLVVDYEWYDYWGQGTQVTVSS | high polyreactivity |
| QVQLVESGGGLVQAGGSLRLSCAASGSISDYYAMGWYRQAPGKERELVAAISWDGGSTYYADTVKGRFTISRDNAKNTVYLQMNSLKPEDTAVYYCNAGSGASVGNHILYDYWGQGTQVTVSS | low polyreactivity |
| QVQLVESGGGLVQAGGSLRLSCAASGSISGLNAMGWYRQAPGKERELVAAISRSGGRTYYADSVKGRFTISRDNAKNTVYLQMNSLKPEDTAVYYCAAVTTWRMDYWGQGTQVTVSS | high polyreactivity |
| QVQLVESGGGLVQAGGSLRLSCAASGSISGLYAMGWYRQAPGKERELVARIRWRGDSTYYADSVKGRFTISRDNAKNTVYLQMNSLNPEDTAVFYCAASAYSGKVNKYNYWGQGTQVTVSS | high polyreactivity |
| QVQLVESGGGLVQAGGSLRLSCAASGSISGYYTMGWYRQAPGKERELVAAISRSGVRTYYADSVKGRFTISRDNAMNTVYLQMNSLKPEDTAVYYCARKDSSLGDYWGQGTQVTVSS | high polyreactivity |
| QVQLVESGGGLVQAGGSLRLSCAASGSISGYYVMGWYRQAPGKERELVAAITWRGGSTYYADSVKGRFTISRDNAKNTVYLQMNSLKPEDTAVYYCNKVPGRRSTFEYWGQGTQVTVSS | high polyreactivity |
| QVQLVESGGGLVQAGGSLRLSCAASGSISIRNAMGWYRQAPGTERELVAAITYSGGSTYYADSVKGRFTISRDNAKNTVYLQLNRLKPEDTAVYYCAKDHYRFRYDYWGQGTQVTVSS | low polyreactivity |
| QVQLVESGGGLVQAGGSLRLSCAASGSISKFYAMGWYRQAPGKERELVAAISSGGITNYADSLKGRFTISRDNAKNTVYLQMNSLKPEDTAVYYCAKDYPYYEGAKYYYWGQGTQVTVSS | high polyreactivity |
| QVQLVESGGGLVQAGGSLRLSCAASGSISKINAMGWYRQAPGKERELVAAINTGDSTYYADSVKGRFTISRDNEKNTVYLQMNSLKPEDTAVYYCAAEGSPTGYDYWGQGTQVTVSS | low polyreactivity |
| QVQLVESGGGLVQAGGSLRLSCAASGSISKYTMGWYRQAPGKERELVAAINWSGGSTYADSVKGRFTISRDNAKNTVYLQMNSLKPEATAVYYCNARAQRGYFGYRYNYWGQGTQVTVSS | high polyreactivity |
| QVQLVESGGGLVQAGGSLRLSCAASGSISLLYAMGWYRQAPGKDRELVAAISSGTDDTYYADSVKGRFTISRDNAKNTVYLQMNSLKPEDTAVYYCAADPLFKDDLWPVRVRVDYWGQGTQVTVSS | low polyreactivity |

Source: the nanobody polyreactivity screen of Harvey et al. (2022)
